Source: patent US20050154189A1 (MAXYGEN, published 2005)

target: T1, Soluble CTLA-4-Ig (human, UniProt P16410 36-161, FITC-conjugated in the two-colour FACS assays; unlabelled and detected with FITC goat anti-human IgG in the concentration-dependent assay); assay: two-colour FACS profile on transfected cells; score of preference for CTLA-4-Ig over CD28-Ig vs WT hB7-1
T1 construct: extracellular domain; Bought from R&D Systems; also called sCTLA-4-Ig; CTLA-4-Ig Fc; not shown: Fc portion of human IgG1
T1 sequence (P16410 36-161): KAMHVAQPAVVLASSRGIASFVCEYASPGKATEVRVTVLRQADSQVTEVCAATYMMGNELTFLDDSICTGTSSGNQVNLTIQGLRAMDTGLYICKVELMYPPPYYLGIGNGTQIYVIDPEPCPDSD

Row | Binding Score | Binder
1 | 1 | Round 2 CTLA4BP-5x2-4c (ligand) VIHVTKEVKEVATLSCGLNVSVEELAQTRIYWQKEKKMVLTMMSGDMNIWPEYKNRTIFDITNNLSIVILALRPSDEGTYECVVLEYEKDAFKREHLAEVMLSVKADFPTPSISDFEIPPSNIRRIICSTSGGFPEPHLSWLENGEELNGINTTVSQDPETELYTVSSKLDFNMTTNRSFVCLIKYGHLRVNQTFNWNTPKQEHFPDNLLPSWAITLISVNGIFVICCLTYCFAPRCRERRRNERLRRESVHPV
2 | 2 | Round 2 CTLA4BP-5x4-11d (ligand) VIHVTKEVKEVATLSCGLNVSVEELAQTRIHWQKEKKMVLTMMSGDMNIWPEYKNRTIFDITNNLSIVILALRPSDEGTYECVVLKYDKDAFKREHLAEVTLSVKADFPTPSISDFEIPPSNIRRIICSTSGGFPEPHLSWLENGEELNAINTTVSQDPETELYTVSSKLDFNMTANHSFVCLIKYGHLRVNQTFNWNTPKQEHFPDNLLPSWAITLISVNGIFVICCLTYRFAPRCRERKSNERLRRESVRPV
3 | 2 | Round 2 CTLA4BP-5x3-10e (ligand) VIHVTKEVKEVATLSCGHNVSVEELAQTRIYWQKEKKMVLTMMSGDMNIWPEYKNRTIFDITNNLSIVILALRPSDEGTYECVVLEYEKDAFKREHLAEVTLSVKADFPTPSISDFEIPPSNIRRIICSTSGGFPEPHLFWLENGEELNAINTTVSQDPETELYAVSSKLDFNMTTNHSFMCLIKYGHLRVNQTFNWNTPKQEHFPDNLLPSWAITLISANGIFVICCLTYCFAPRCRERKSNERLRRESVHPV
4 | 1 | Round 2 CTLA4BP-5x2-7b (ligand) VIHVTKEVKEVATLSCGHNVSVEELAQTRIHWQKEKKMVLTMMSGDMNIWPEYKNRTIFDITNNLSIVILALRPSDEGTYECVVLKYEKDAFKREHLAEVTLSVKAGFPTPSITDFEIPPSNIRRIICSTSGGFPEPHLSWLENGEELNAINTTVSQDPGTELYTVSSKLDFNMTANHSFVCLIKYGHLRVNQTFNWNTPKQEHFPDNLLPSWAITLISANGIFVICCLTYCFAPRCRERRRNERLRRESVRPV
5 | 2 | Round 2 CTLA4BP-5x4-1f (ligand) VIHVTKEVKEVATLSCGHNVSVEELAQTRIHWQKEKKMVLTMMSGDMNIWPEYKNRTIFDITNNLSIVILALRPSDEGTYECVVLKYEKDAFKREHLAEVMLSVKADFPTPSISDFEIPTSNIRRIICSTSGGFPEPHLFWLENGEELNAINTTVSQDPETELYTVSSKLDFNMTTNHSFMCLIKYGHLRVNQTFNWNTPKQEHFPDNLLPSWAITLISVNGIFVICCLTYCFAPRCRERRRNERLRRESVCPV
6 | 1 | Round 2 CTLA4BP-5x3-11b (ligand) VIHVTKEVKEVATLSCGHNVSVEELAQTRIYWQKEKKMVLTMMSGDMNIWPEYKNRTIFDITNNLSIVILALRSSDEGTYECVVLKYEKDAFKREHLAEVTLSVKADFPTPSITDFEIPPSNIRRIICSTSGGFPEPHLSWLENGEELNAISTTVSQDPETELYTVSSKLDFNMTTNRSFVCLIKYGHLRVNQTFNWNTPKQEHFPDNLLPSWAITLISVNGIFVICCLTYCFAPRCRERRSNERLRRESVRPV
7 | 2 | Round 2 CTLA4BP-5x3-6f (ligand) VIHVTKEVKEVATLSCGHNVSVEELAQTRIYWQKGKKMVLTMMSGDMNIWPEYKNRTIFDITNNLSIVILALRPSDEGTYECVVLEYEKDAFKREHLAEVMLSVKADFPTPSISDFEIPTSNIRRIICSTSGGFPEPHLSWLENGEELNAINTTASQDPETELYTVSSKLDFNMTTNHSFMCLIKYGHLRVNQTFNWNTPKQEHFPDNLLPSWAITLISANGIFVICCLAYCFAPGCRERKSNERLRRESVRPV
8 | 2 | Round 2 CTLA4BP-5x2-8c (ligand) VIHMTKEVKEVATLSCGHNVSVEELAQTRIYWQKEKKMVLTMMSGDMNIWPEYKNRTIFDITNNLSIVILALRPSDEGTYECVVLKYEKDAFKQEHLAEVMLSVKADFPTPSITDFEIPPSNIRRIICSTSGGFPEPHLFWLENGEELNAINTTVSQDPETELYAVSSKLDFNMTTNHSFVCLIKYGHLRVNQTFNWNTPKQEHFPDNLLPSWAITLISANGIFVICCLTYCFAPRCRERRRNERLRRESVHPV
